Tested on: Bacillus subtilis
Test: cleaved RNA product abundance (RNA/gDNA barcode ratio) relative to median wild-type variant (ratio to wild type); higher = more accumulation of the downstream cleavage product
Procedure, shortened: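 Reporter mRNAs based on truncated aprE or tetM carried barcoded, mutagenized RNase Y cleavage-site windows built from oligos with a 9% error rate and were integrated into the B. subtilis chromosome. Cultures grew in LB at 37°C from OD600 0.0003 to 0.3. Cleaved RNA was gel-selected, reverse transcribed and barcode-sequenced together with genomic DNA barcodes, and UMIs were collapsed. Cleaved product abundance is the per-construct ratio of RNA to gDNA barcodes, scaled to the median of constructs carrying the unmutated site.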

[1] = experiment (reporter, strain, medium): exp 4a: truncated aprE reporter, strain BJT201 with 2% xylose (RNase J1 expressed), cleavage site: cggR-gapA (positions -7 to +36 mutated)
[2] = experiment (reporter, strain, medium): exp 2b: truncated aprE reporter, strain BJT200, cleavage site: cggR-gapA (positions -7 to +36 mutated)
[3] = experiment (reporter, strain, medium): exp 8a: truncated aprE reporter, strain BJT201 with 2% xylose (RNase J1 expressed), cleavage site: glnRA (positions -5 to +31 mutated)
[4] = experiment (reporter, strain, medium): exp 6: tetM reporter, strain 168, cleavage site: cggR-gapA (positions -7 to +36 mutated)

Sequence | cleaved RNA product abundance [1] | cleaved RNA product abundance [3] | further results
ACAGACGAAGGAGCCGCAAAGAAGTTATTAAGGGATGAATAATCCCCCAATATACATATCTCTCACTTATTTAAA | 0.446 |  | 
ACAGACGAAGGAGCCGCAAAGTAGTTATTAAGGGATGAATAATCCCTCATTATAAATATCTCTCACTTATTTAAA | 0.396 |  | 
ACAGACGAAGGAGCCGCAAACAAGTGATTAAGGGATGAATAATCCCTCAATATAAATATCTCTCACTTATTTAAA | 0.27 |  | cleaved RNA product abundance [2]: 0.223
CGACATGTCCCGCTTCTTTCATTAATCCGTTAGCAACTGTTTTTCTATATAGATTTACCTTTTAAGAGGAGGAAT |  | 0.925 | 
CGACATGTCCCGCTTCTTTCATTAATTCGTTAGCAACTGTTTTGCTATATACATTTACCTTTTAAGAGGAGGAAT |  | 1.11 | 
CGACATGTCCCGCTTCTTTCATTAATCAGTTAGCTACTGTTTTGCTATATACATTTACCTTTTAAGAGGAGGAAT |  | 0.423 | 
ACAGACGAAGGAGCCGCAAAGAAGTTATGAAGAGATGAATAATCCCTCAATATAAATATCTCTCACTTATTTAAA | 0.0998 |  | 
ACAGACGAAGGAGCCGCAAAGAAGTTATTAGGGGATGAATAATCCCTCAATATAAATATCTCTCACTTATTTAAA | 0.718 |  | cleaved RNA product abundance [2]: 0.699; cleaved RNA product abundance [4]: 0.377
ACAGACGAAGGAGCCGCAAAGAAGTGATTAAGGGATGAATAATCCCTCACTATAAATATCTCTCACTTATTTAAA | 0.0759 |  | 
ACAGACGAAGGAGCCGCAAAGAAGTTATTAAGGGATGAATAATCCCTGAACATAAATATCTCTCACTTATTTAAA | 0.242 |  | 
CGACATGTCCCGCTTCTTTCATTAATCCGTTATCAACTGTTTTGCAATATACATTTACCTTTTAAGAGGAGGAAT |  | 0.266 | 
ACAGACGAAGGAGCCGCAAAGAACTTATTAAGGGATGAATAATCCCTAAATATAAATATCTCTCACTTATTTAAA | 0.454 |  | cleaved RNA product abundance [2]: 0.258
ACAGACGAAGGAGCCGCGAAGAAGTTAATAAGGGATGAATAATCCCTCAATATAAATATCTCTCACTTATTTAAA | 0.31 |  | 
ACAGACGAAGGAGCCGCAAGGAAGTTATTAAGGGATGAATAATCCCTCAAAATAAATATCTCTCACTTATTTAAA | 0.314 |  | 
CGACATGTCCCGCTTCTTTCATTAATCCGTTAGCAACTTTTTTCCTATATACATTTACCTTTTAAGAGGAGGAAT |  | 0.697 | 
ACAGACGAAGGAGCCGCAAAGACGTTATTAAGGGATGAATAATCCCTCTATATAAATATCTCTCACTTATTTAAA | 0.572 |  | 
ACAGACGAAGGAGCCGCAAAGAAGTTATTAAAGGATGAATAACCCCTCAATATAAATATCTCTCACTTATTTAAA | 0.108 |  | cleaved RNA product abundance [2]: 0.105
CGACATGTCCCGCTTCTTTCATTAATCCGTTAACAACTGTTTTTCTATATACATTTACCTTTTAAGAGGAGGAAT |  | 0.258 | 
CGACATGTCCCGCTTCTTTCATTAACCCGTTAGCAACTGTTTTGCTATATATATTTACCTTTTAAGAGGAGGAAT |  | 1.16 | 
ACAGACGAAGGAGCCGCAAAGAAGTTATAAAGGGATGAATAATCCCTCAATTTAAATATCTCTCACTTATTTAAA | 0.152 |  | cleaved RNA product abundance [2]: 0.146

Sequence | cleaved RNA product abundance [1] | cleaved RNA product abundance [3] | further results
ACAGACGAAGGAGCCGCAAAGAAGTTATTAACGGATGAATATTCCCTCAATATAAATATCTCTCACTTATTTAAA | 0.138 |  | 
ACAGACGAAGGAGCCGCAAAGACGTTATTAAGGGATGAATAATCCCTCAAGATAAATATCTCTCACTTATTTAAA | 0.205 |  | 
ACAGACGAAGGAGCCGCAAAGAAGTTATTAAGGGATGAATAATCCTTCAATATATATATCTCTCACTTATTTAAA | 0.604 |  | 
ACAGACGAAGGAGCCGCAAAGAAGTTGTTAAGGGATAAATAATCCCTCAATATAAATATCTCTCACTTATTTAAA | 0.688 |  | cleaved RNA product abundance [2]: 0.279
CGACATGTCCCGCTTCTTTCATTAATCCGTTAGCAACTATTTTGCTATATACGTTTACCTTTTAAGAGGAGGAAT |  | 0.197 | 
ACAGACGAAGGAGCCGCAATGAAGTTATTAAGGGATGAATAATCCCTGAATATAAATATCTCTCACTTATTTAAA | 0.713 |  | 
CGACATGTCCCGCTTCTTTCATTAATCCGTTAGCAACGGTTTTGCCATATACATTTACCTTTTAAGAGGAGGAAT |  | 0.202 | 
ACAGACGAAGGAGCCGCAAAGAAGTTATTAACGGATCAATAATCCCTCAATATAAATATCTCTCACTTATTTAAA | 0.104 |  | cleaved RNA product abundance [2]: 0.0668
ACAGACGAAGGAGCTGCAAAGAAGTTATTAAGGGATGAATAATCCCTCAATATAAATATCTCTCACTTATTTAAA |  |  | cleaved RNA product abundance [4]: 0.987
ACAGACGAAGGAGCCGCAAAGAAGTTATTAAGGGATGAATATTCCCTTAATATAAATATCTCTCACTTATTTAAA | 0.526 |  | cleaved RNA product abundance [2]: 1.01
ACAGACGAAGGAGCCGCAAAGAAGTTATTAAGTGACGAATAATCCCTCAATATAAATATCTCTCACTTATTTAAA | 0.0518 |  | 
CGACATGTCCCGCTTCTTTCATTACTCCGTTAGCAACTGTTTTGCTGTATACATTTACCTTTTAAGAGGAGGAAT |  | 0.372 | 
ACAGACGAAGGAGCCGCAAAGAAGTTATTAAGGGATTAATAAGCCCTCAATATAAATATCTCTCACTTATTTAAA | 0.667 |  | cleaved RNA product abundance [2]: 0.453
CGACATGTCCCGCTTCTTTCATTAATCCGTTAGCAACTGTTTTGCAATATAGATTTACCTTTTAAGAGGAGGAAT |  | 0.599 | 
CGACATGTCCCGCTTCTTTCATTAATCCGTTAGCAATTGTTTTGATATATACATTTACCTTTTAAGAGGAGGAAT |  | 0.65 | 
CGACATGTCCCGCTTCTTTCATTATTCCGTTAGCAACTGTTTTCATAAATACATTTACCTTTTAAGAGGAGGAAT |  | 0.375 | 
ACAGACGAAGGAGCCGCAAAGAAGTTATTAAGGGATGAATAAACCTTCAATATAAATATCTCTCACTTATTTAAA | 0.267 |  | cleaved RNA product abundance [2]: 0.096
ACAGACGAAGGAGCCGCAAAGAAGTTATTAAGACATGAATAATCCCTCAATATAAATATCTCTCACTTATTTAAA | 0.132 |  | cleaved RNA product abundance [2]: 0.111
CGACATGTCCCGCTTCTTTCATTAATCCGTTAGCAAGTTTTTTGCTATATACATTTACCTTTTAAGAGGAGGAAT |  | 0.974 | 
ACAGACGAAGGAGCCGCAAAAAAGTTATTAAGTGATGAATAATCCCTCAATATAAATATCTCTCACTTATTTAAA | 0.0972 |  | cleaved RNA product abundance [2]: 0.119

Sequence | cleaved RNA product abundance [1] | cleaved RNA product abundance [3] | further results
ACAGACGAAGGAGCCGCAAAGAAGTTATTAAGGGATTAATAATCCCACAATATAAATATCTCTCACTTATTTAAA | 0.347 |  | cleaved RNA product abundance [2]: 0.238
ACAGACGAAGGAGCCGCAAAGAAGTTATTAAGGAATGAATAATCCCTCAAGATAAATATCTCTCACTTATTTAAA | 0.0834 |  | 
ACAGACGAAGGAGCCGCAAAGAAGTTATTAAGGGATAAATCATCCCTCAATATAAATATCTCTCACTTATTTAAA | 0.818 |  | 
ACAGACGAAGGAGCCGCAAAGAAGTTACTAAGGGATGCATAATCCCTCAATATAAATATCTCTCACTTATTTAAA | 0.235 |  | 
ACAGACGAAGGAGCCGCAAAGAAGTTATTAAGGGATGAATACTCCCTCCATATAAATATCTCTCACTTATTTAAA | 0.218 |  | cleaved RNA product abundance [2]: 0.138
CGACATGTCCCGCTTCTTTCATTAATCCGTAAGCAACTGTTTTGCTATATACATTTCCCTTTTAAGAGGAGGAAT |  | 0.212 | 
ACAGACGAAGGAGCCGCAAAGAAGTTATTAAATGATGAATAATCCATCAATATAAATATCTCTCACTTATTTAAA | 0.162 |  | 
CGACATGTCCCGCTTCTTTCATTAATCCGTTAGCAACTGTATTTCTATATACATTTACCTTTTAAGAGGAGGAAT |  | 0.506 | 
ACAGACGAAGGAGCCGCAAAGAAGTTATTAAGGGATGATTAATCCCTGAATATAAATATCTCTCACTTATTTAAA | 0.458 |  | 
ACAGACGAAGGAGCCGCAAAGAAATTATTAAGGGATGAATAATCCCTCAATATAAAAATCTCTCACTTATTTAAA | 0.568 |  | 
CGACATGTCCCGCTTCTTTCATTAATTCGTTAGCAACTGTTTTGCTATATTCATTTACCTTTTAAGAGGAGGAAT |  | 0.627 | 
CGACATGTCCCGCTTCTTTCATTAATCCGTTAGCAACTGTTTTGCTATATTACATTTACCTTTTAAGAGGAGGAA |  | 0.443 | 
ACAGACGAAGGAGCCGCAATGAAGTTATCAAGGGATGAATAATCCCTCAATATAAATATCTCTCACTTATTTAAA | 0.487 |  | 
CGACATGTCCCGCTTCTTTCATTAATCCGTTAGCAACTGTGTTGTTATATACATTTACCTTTTAAGAGGAGGAAT |  | 1.01 | 
ACAGACGAAGGAGCCGCAAAGAAGTTATTAAGGGATTAATAATCCCTCATTATAAATATCTCTCACTTATTTAAA | 0.534 |  | cleaved RNA product abundance [2]: 0.247
ACAGACGAAGGAGCCGCAAAGAAGTTATTAAGGGATGAATAATCCCACAATATATATATCTCTCACTTATTTAAA | 0.303 |  | 
ACAGACGAAGGAGCCGCAAAGAAGTTATTACGGGATGAATAATCCCTCAATATAAATATCTCTCACTTATTTAAA | 0.46 |  | cleaved RNA product abundance [2]: 0.32; cleaved RNA product abundance [4]: 0.453
CGACATGTCCCGCTTCTTTCATTAATCCGTTAGCAACTTTTTTGCTATATACATATACCTTTTAAGAGGAGGAAT |  | 2.12 | 
ACAGACGAAGGAGCCGCAAAGAAATTATTAAGGGATGAATAATCCCTCAATATAACTATCTCTCACTTATTTAAA | 0.325 |  | 
ACAGACGAAGGAGCCGCAAAGAAGTTATTAAGGGATCAATAACCCCTCAATATAAATATCTCTCACTTATTTAAA | 0.561 |  | 
